Results: PMC6817665

What was measured:
[1] = molecular target: N-terminally fluorescein-labeled CEP55 ZF mutant E460A (human) (UniProt Q53EZ4); experiment: fluorescence polarisation
[2] = molecular target: CEP55 His-NOA (His-tag version of the human CEP55 NOA fragment, residues 304–396) (human) (UniProt Q53EZ4); experiment: BLI
[3] = molecular target: mixture of biotinylated K63 poly-ubiquitin chains (Ub2-7) (UniProt P0CG48); experiment: BLI

Sequence of N-terminally fluorescein-labeled CEP55 ZF mutant E460A (human) (Q53EZ4 435-464 E460A): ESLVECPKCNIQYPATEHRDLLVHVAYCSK
Sequence of CEP55 His-NOA (His-tag version of the human CEP55 NOA fragment, residues 304–396) (human) (Q53EZ4 304-396): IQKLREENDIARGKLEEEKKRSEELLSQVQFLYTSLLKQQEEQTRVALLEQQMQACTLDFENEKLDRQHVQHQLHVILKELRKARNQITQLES

## mono-ubiquitin (from UniProt P0CG48 1-76) (natural protein)
[1]
  fold weaker affinity than WT: 20 fold

## K63-linked tetra-ubiquitin (Ub4) (from UniProt P0CG48 1-76) (complex)
[2]
  fold by which the KD is higher than that of M1-linked Ub4: 30 fold

## Strep-tag II CEP55 ZF (StrepII-tag version of CEP55 ZF peptide, residues 435–464) (from UniProt Q53EZ4-1 435-464)
[3]
  Kd: 2100 nM
